Drawing on patent publication US20240409617A1 (published 2024), this text covers Kd for eight molecules.

Common to all, as to assay: BLI
On the technique in general: Biolayer interferometry detects binding as a change in optical thickness at a sensor tip.

For one assay, the target named is S1-biotin(ACRO).
Assay [1] has as its target S1.
Assay [2] has as its target S1. This is another data set of the same source.
For assay [3], the target named is S1. This is another data set of the same source.
Assay [4] addresses S1. This is another data set of the same source.

Where two headings read alike, the source gives them in different places.

B1: Ab 25 (Fc fusion)
VH: QVQLVQSGGGLVQPGGSLRLSCAASGFTFSSYWMSWVRQAPGKGLEWVANIKQDGSEKYYVDSVKGRFTISRDNAKNSLYLQMNSLRAEDTAVYYCARGFYYYGAFDIWGQGTTVTVSS
VL: NFMLTQPHSVSESPGKTVTISCTGSSGSIASNYVQWYQQRPGSAPTTVIYEDNQRPSGVPDRFSGSIGSSSNSASLTISGLKTEDEADYYCQSYDSSNHWVFGGGTKLTVL
Broadly, the Kd is the equilibrium constant for the complex coming apart. A high value points to weaker binding. For the molecule B1, the Kd with S1-biotin(ACRO) and in the assay with S1 [1] was 10.1 nM in each case.

B2: Ab set2-7 (Fc fusion)
chain 1: QVTLKESGPTRVKPTQTLTLTCTFSGFSLSTTGVGVGWIRQPPGKALEWLALIYWNDDKRYSPSLKSRLTITKDTSKNQVVLTMTNMDPVDTATYYCARISGSGYFYPFDIWGQGTTVTVSS
chain 2: NFMLTQPHSVSESPGKTVTISCTRSSGSIASNYVQWYQQRPGSSPTTVIYEDNQRPSGVPDRFSGSIDSSSNSASLTISGLKAEDEADYYCQSYDSSSLWVFGGGTKLTVL
Turning to B2, the Kd with S1 [2] and in the assay with S1 [3] was below 0.001 nM in each case.

B3: Ab 2-7 (Fc fusion)
chain 1: QVTLKESGPTRVKPTQTLTLTCTFSGFSLSTTGVGVGWIRQPPGKALEWLALIYWNDDKRYSPSLKSRLTITKDTSKNQVVLTMTNMDPVDTATYYCARISGSGYFYPFDIWGQGTTVTVSS
chain 2: NFMLTQPHSVSESPGKTVTISCTRSSGSIASNYVQWYQQRPGSSPTTVIYEDNQRPSGVPDRFSGSIDSSSNSASLTISGLKAEDEADYYCQSYDSSSLWVFGGGTKLTVL
With B3, the Kd with S1 [1] and with S1 [4] was below 0.001 nM throughout.

B4: Ab 27 (Fc fusion)
VH: QVQLVQSGTEVKKPGASVKVSCKASGYSFTGSHLHWVRQAPGQGLEWMGWINPDSGVINYAQKFQGRVTLTRDTSISTAYMELSGLRSDDTAVYYCARDKAIGYVWALDYWGQGTLVTVSS
VL: QSALTQPPSVSGSPGQSVTISCTGTSSDVGTYNRVSWYQQPPGKAPKLMIYEVSNRPSGVSNRFSGSKSGNTASLTISGLQAEDEADYYCSSYTRTFTYVFGTGTKVTVL
As to B4, the Kd in the assay with S1-biotin(ACRO) and with S1 [1] was below 0.001 nM each time.

B5: Ab 5 (Fc fusion)
VH: QVQLVQSGGGVVQPGRSLRLSCAASGFTFTTYGMHWVRQAPGKGLEWVAVISYDGSIKNYADFVEGRFTISRDNSKNTLYLQMNSLRPEDTGVYYCARVGDSSSYYGIDAWGQGTLVTVSS
VL: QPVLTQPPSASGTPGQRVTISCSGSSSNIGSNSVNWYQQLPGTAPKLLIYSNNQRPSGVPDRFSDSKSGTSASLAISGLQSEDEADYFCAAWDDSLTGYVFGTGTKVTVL
The molecule B5 had a Kd with S1 [1] below 0.001 nM.

B6: Ab 15 (Fc fusion)
VH: QVQLVQSGGGLVKPGRSLRLSCTASGFTFGDYAMSWFRQAPGKGLEWVGFIRSKAYGGTTGYAASVKGRFTISRDDSKSIAYLQMNSLKTEDTAVYYCTTADDDMDVWGKGTTVTVSS
VL: NFMLTQPHSVSESPGKTVTISCTRSSGTIASNYVQWYQQRPGSAPTTVIYEDNQRPSGVPDRFSGSIDRSSNSASLTISGLTPDDEADYYCQSYDTSNHYVFGTGTKVTVL
As for B6, the Kd in the assay with S1-biotin(ACRO) and with S1 [1] was 0.033 nM throughout.

B7: Ab 23 (Fc fusion)
VH: EVQLVQSGAEVKKPGSSVKVSCRSSGGTFSTYGITWVRQAPGQGLEWMGRIIPSLGIPNYAQKFQGRVTITADTSVSTAWMELSSLESDDTAIYYCARENIDLATNDFWGQGTLVTVSS
VL: QSALTQPPSASGSPGQSVTISCTGTSRDIGAYGYVSWYQQVPGKAPKLIIYEVRNRPSGVSSRFSGSKSGNTASLTISGLQAEDEADYYCSSYTSSSTLDVVFGGGTKLTVL
Turning to B7, the Kd with S1-biotin(ACRO) and in the assay with S1 [1] was 0.338 nM in each case.

B8: Ab 30 (Fc fusion)
VH: QVQLVQSGGGVVQPGKSLRLSCTASGFTFSDFPIHWVRQAPGKGLEWVGVISYDGNIKYYGDSVKGRFTISRDNAKNSLYLQMNSLRVEDTAVYYCARGGSSFDIWGQGTTVTVSS
VL: SYELTQPPSVSEAPRQRVTISCSGSTSNIGNNAVSWYQHLPGKAPKLLIYYNERLPSGVSDRFSGSKSGTSASLAISGLRSEDEADYYCAAWDDSLSGHVVFGGGTKLTVL
B8 yielded a Kd with S1 [1] of 0.314 nM.
